Experiment [1] has as its target T1, full-length human CD19 on transfected K562 cells (human, UniProt P15391 20-556).
T1 construct: whole, on cells; K562 clone transfected with pCMV6-Entry; also called CD19 K562; CD19/K562; not shown: flag or Myc tag at the C-terminus
T1 sequence (looked up): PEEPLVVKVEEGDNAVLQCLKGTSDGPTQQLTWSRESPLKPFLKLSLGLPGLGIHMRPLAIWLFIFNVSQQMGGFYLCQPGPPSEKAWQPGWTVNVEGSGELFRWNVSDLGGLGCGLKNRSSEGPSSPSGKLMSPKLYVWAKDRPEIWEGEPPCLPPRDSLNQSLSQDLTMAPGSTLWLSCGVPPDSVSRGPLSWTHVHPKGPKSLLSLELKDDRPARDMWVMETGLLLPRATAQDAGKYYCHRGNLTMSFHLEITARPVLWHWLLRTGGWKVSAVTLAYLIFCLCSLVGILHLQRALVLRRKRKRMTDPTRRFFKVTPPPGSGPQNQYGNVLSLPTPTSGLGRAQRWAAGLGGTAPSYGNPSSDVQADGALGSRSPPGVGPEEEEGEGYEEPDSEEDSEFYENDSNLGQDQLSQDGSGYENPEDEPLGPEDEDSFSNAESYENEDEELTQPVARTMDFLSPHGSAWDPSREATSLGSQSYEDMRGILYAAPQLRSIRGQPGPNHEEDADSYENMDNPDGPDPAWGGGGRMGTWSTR
The experiment in a line: FACS, bispecific scFv at 200 nM on CD19 K562 cells, Alexa Fluor 647 anti-His detection, % positive cells. The method, then:
(§1) Cells were spun down at 1300 rpm for 5 minutes at 4° C. to remove unbound antibodies. Cells were then washed once with 200 iaL of PBS per well. […] Samples were then spun down at 1300 rpm for 5 minutes at 4° C. and washed twice with 200uL of 1×PBS per well. The resultant samples were reconstituted in 200 uL of 1×PBS and read on Attune™ NxT Flow Cytometer.
A general note: A flow cytometer gives signals particle by particle.

Experiment [2] deals with T1, full-length human CD19 on transfected …. The experiment in a line: FACS, scFv at 200 nM on CD19 K562 cells, Alexa Fluor 647 anti-His detection, % positive cells. The procedure: as §1
Experiment [3] has as its target human CD19 and human CD22 co-expressed on transfected K562 cells (human, UniProt P15391 20-556; P20273 20-847). The experiment is described as follows: cell-based or functional assay.
The target in experiment [4] is T1, full-length human CD19 on transfected …. The experiment is described as follows: cell-based or functional assay.
Experiment [5] addresses full-length human CD22 on transfected K562 cells (human, UniProt P20273 20-847). The experiment is described as follows: cell-based or functional assay.

B1: EPC-001-10 (bispecific scFv) (bispecific antibody)
scFv: EVQLVQSGAEVKKPGASVKVSCKASGYTFTSYGISWVRQAPGQGLEWMGWISAYNGNTNYAQKLQGRVTMTTDTSTSTAYMELRSLRSDDTAVYYCARDYGDPSGDDYWGQGTLVTVSSGGGGSGGGGSGGGGSEIVLTQSPATLSVSPGEGVTLSCRASQSVSSNLAWYQQRPGQAPRLLIYGASIKATDVPDRFSGGGSGTDFTLSISNLQSEDFAVYYCQQYHTWPPVTFGGGTKVEIKGSTSGSGKPGSGEGSTKGQVQLQQWGAGLLKPSETLSLTCAVYGGSFSGYYWTWIRQPPGKGLEWIGEINHGGSSNYNPSLKSRVTISVDTSKKQFSLNLNSVTAADTAVYYCARGLGYRSGWYEVENAFDIWGQGTMVTVSSGGGGSGGGGSGGGGSQPVLTQPPSVSVAPGQTARITCGGNKIESRSVHWYQQKPGQAPVLVVYDDGARPSGIPERLSGSNSGDTATLTISRVEPGDEADYYCQVWDGSSVIFGGGTKLTVLDYKDDDDKGGHHHHHH
notes: Expressed in E. coli periplasm, Ni-purified
Consider B1, for which the binding result in experiment [1] was “binds”.

B2: EPC-001-4 (scFv)
scFv (VH-linker-VL): EVQLVQSGAEVKKPGASVKVSCKASGYTFTSYGISWVRQAPGQGLEWMGWISAYNGNTNYAQKLQGRVTMTTDTSTSTAYMELRSLRSDDTAVYYCARDYGDPSGDDYWGQGTLVTVSSGGGGSGGGGSGGGGSEIVLTQSPATLSVSPGEGVTLSCRASQSVSSNLAWYQQRPGQAPRLLIYGASIKATDVPDRFSGGGSGTDFTLSISNLQSEDFAVYYCQQYHTWPPVTFGGGTKVEIK
notes: also called anti-CD22 monospecific scFv; parental anti-CD22 scFv
As for B2, in experiment [2], the binding result is recorded as “no binding (tested: 200 nM)”.

B3: EPC-001-6 (bispecific antibody)
tandem scFv, anti-CD22 scFv - linker - anti-CD19 scFv - Flag - His: QVQLVQSGAEVKRPGASVKVSCKASGYTFTSYGISWVRQAPGQGLEWMGWISAYNGNTNYAQKLQGRVTMTTDTSTSTAYMELRSLRSDDTAVYYCARDPGIAVAGTVDYWGQGTLVTVSSGGGGSGGGGSGGGGSEIVMTQSPATLSVSPGEGVTLSCRASQSVSSNLAWYQQRPGQAPRLLIYGASIKATDVPDRFSGGGSGTDFTLSISNVQSEDFAVYYCQQYHTWTPVTFGGGTKVEIKGSTSGSGKPGSGEGSTKGQVQLQQWGAGLLKPSETLSLTCAVYGGSFSGYYWTWIRQPPGKGLEWIGEINHGGSSNYNPSLKSRVTISVDTSKKQFSLNLNSVTAADTAVYYCARGLGYRSGWYEVENAFDIWGQGTMVTVSSGGGGSGGGGSGGGGSQPVLTQPPSVSVAPGQTARITCGGNKIESRSVHWYQQKPGQAPVLVVYDDGARPSGIPERLSGSNSGDTATLTISRVEPGDEADYYCQVWDGSSVIFGGGTKLTVLDYKDDDDKGGHHHHHH
notes: also called EPC-001-6 (bispecific scFv)
As to B3, in experiment [1], the binding result is recorded as “binds”.

B4: EPC-001-5 (bispecific antibody)
tandem scFv, anti-CD19 scFv - linker - anti-CD22 scFv - Flag - His: QVQLQQWGAGLLKPSETLSLTCAVYGGSFSGYYWTWIRQPPGKGLEWIGEINHGGSSNYNPSLKSRVTISVDTSKKQFSLNLNSVTAADTAVYYCARGLGYRSGWYEVENAFDIWGQGTMVTVSSGGGGSGGGGSGGGGSQPVLTQPPSVSVAPGQTARITCGGNKIESRSVHWYQQKPGQAPVLVVYDDGARPSGIPERLSGSNSGDTATLTISRVEPGDEADYYCQVWDGSSVIFGGGTKLTVLGGGGSGGGGSGGGGSGGGGSQVQLVQSGAEVKRPGASVKVSCKASGYTFTSYGISWVRQAPGQGLEWMGWISAYNGNTNYAQKLQGRVTMTTDTSTSTAYMELRSLRSDDTAVYYCARDPGIAVAGTVDYWGQGTLVTVSSGGGGSGGGGSGGGGSEIVMTQSPATLSVSPGEGVTLSCRASQSVSSNLAWYQQRPGQAPRLLIYGASIKATDVPDRFSGGGSGTDFTLSISNVQSEDFAVYYCQQYHTWTPVTFGGGTKVEIKDYKDDDDKGGHHHHHH
notes: also called EPC-001-5 (bispecific scFv)
For the molecule B4, in experiment [1], the binding result is “binds”.

B5: EPC-001-19 (bispecific CAR; G4S linker; co-expressed with EGFR), on transduced human T cells (other)
chain: EVQLVQSGAEVKKPGASVKVSCKASGYTFTSYGISWVRQAPGQGLEWMGWISAYNGNTNYAQKLQGRVTMTTDTSTSTAYMELRSLRSDDTAVYYCARDYGDPSGDDYWGQGTLVTVSSGGGGSGGGGSGGGGSEIVLTQSPATLSVSPGEGVTLSCRASQSVSSNLAWYQQRPGQAPRLLIYGASIKATDVPDRFSGGGSGTDFTLSISNLQSEDFAVYYCQQYHTWPPVTFGGGTKVEIKGGGGSQVQLQQWGAGLLKPSETLSLTCAVYGGSFSGYYWTWIRQPPGKGLEWIGEINHGGSSNYNPSLKSRVTISVDTSKKQFSLNLNSVTAADTAVYYCARGLGYRSGWYEVENAFDIWGQGTMVTVSSGGGGSGGGGSGGGGSQPVLTQPPSVSVAPGQTARITCGGNKIESRSVHWYQQKPGQAPVLVVYDDGARPSGIPERLSGSNSGDTATLTISRVEPGDEADYYCQVWDGSSVIFGGGTKLTVLESKYGPPCPPCPMFWVLVVVGGVLACYSLLVTVAFIIFWVKRGRKKLLYIFKQPFMRPVQTTQEEDGCSCRFPEEEEGGCELRVKFSRSADAPAYQQGQNQLYNELNLGRREEYDVLDKRRGRDPEMGGKPRRKNPQEGLYNELQKDKMAEAYSEIGMKGERRRGKGHDGLYQGLSTATKDTYDALHMQALPPR
In the case of B5, the “IFNγ/Granzyme B Double Positive Cell % (CD4+)” value in experiment [3] was found to be 3.01%; in experiment [4] it was 10.9%; in experiment [5] it was 0.92%. Also, the results for the “IFNγ/Granzyme B Double Positive Cell % (CD8+)” value in experiment [3], in experiment [4] and in experiment [5] were 74.9%, 82% and 68.5%, respectively.

B6: EPC-001-7 (bispecific scFv) (bispecific antibody)
scFv: QVQLQQWGAGLLKPSETLSLTCAVYGGSFSGYYWTWIRQPPGKGLEWIGEINHGGSSNYNPSLKSRVTISVDTSKKQFSLNLNSVTAADTAVYYCARGLGYRSGWYEVENAFDIWGQGTMVTVSSGGGGSGGGGSGGGGSQPVLTQPPSVSVAPGQTARITCGGNKIESRSVHWYQQKPGQAPVLVVYDDGARPSGIPERLSGSNSGDTATLTISRVEPGDEADYYCQVWDGSSVIFGGGTKLTVLGGGGSGGGGSGGGGSGGGGSEVQLVQSGGGVVQPGKSLRLSCAASGFTFSSYGMHWVRQAPGKGLEWVAVIWYDGSNKYYADSVKGRFTISRDNSKNTLYLQMNSLRAEDTAVYYCARDGWTGFDYWGQGTTVTVSSGGGGSGGGGSGGGGSEIVLTQSPATLSVSPGEGVTLSCRASQSVSSNLAWYQQRPGQAPRLLIYGASIKATDVPDRFSGGGSGTDFTLSISNLQSEDFAVYYCQQYHTWPPVTFGGGTKVEIKDYKDDDDKGGHHHHHH
notes: Expressed in E. coli periplasm (pET22b, Rosetta II), Ni-purified; detected with an anti-His antibody
B6: the binding result in experiment [1] was “binds”.

B7: EPC-001-9 (bispecific scFv) (bispecific antibody)
scFv: QVQLQQWGAGLLKPSETLSLTCAVYGGSFSGYYWTWIRQPPGKGLEWIGEINHGGSSNYNPSLKSRVTISVDTSKKQFSLNLNSVTAADTAVYYCARGLGYRSGWYEVENAFDIWGQGTMVTVSSGGGGSGGGGSGGGGSQPVLTQPPSVSVAPGQTARITCGGNKIESRSVHWYQQKPGQAPVLVVYDDGARPSGIPERLSGSNSGDTATLTISRVEPGDEADYYCQVWDGSSVIFGGGTKLTVLGGGGSGGGGSGGGGSGGGGSEVQLVQSGAEVKKPGASVKVSCKASGYTFTSYGISWVRQAPGQGLEWMGWISAYNGNTNYAQKLQGRVTMTTDTSTSTAYMELRSLRSDDTAVYYCARDYGDPSGDDYWGQGTLVTVSSGGGGSGGGGSGGGGSEIVLTQSPATLSVSPGEGVTLSCRASQSVSSNLAWYQQRPGQAPRLLIYGASIKATDVPDRFSGGGSGTDFTLSISNLQSEDFAVYYCQQYHTWPPVTFGGGTKVEIKDYKDDDDKGGHHHHHH
notes: as for B1
As to B7, in experiment [1], the binding result was “binds”.

B8: EPC-001-8 (bispecific scFv) (bispecific antibody)
scFv: EVQLVQSGGGVVQPGKSLRLSCAASGFTFSSYGMHWVRQAPGKGLEWVAVIWYDGSNKYYADSVKGRFTISRDNSKNTLYLQMNSLRAEDTAVYYCARDGWTGFDYWGQGTTVTVSSGGGGSGGGGSGGGGSEIVLTQSPATLSVSPGEGVTLSCRASQSVSSNLAWYQQRPGQAPRLLIYGASIKATDVPDRFSGGGSGTDFTLSISNLQSEDFAVYYCQQYHTWPPVTFGGGTKVEIKGSTSGSGKPGSGEGSTKGQVQLQQWGAGLLKPSETLSLTCAVYGGSFSGYYWTWIRQPPGKGLEWIGEINHGGSSNYNPSLKSRVTISVDTSKKQFSLNLNSVTAADTAVYYCARGLGYRSGWYEVENAFDIWGQGTMVTVSSGGGGSGGGGSGGGGSQPVLTQPPSVSVAPGQTARITCGGNKIESRSVHWYQQKPGQAPVLVVYDDGARPSGIPERLSGSNSGDTATLTISRVEPGDEADYYCQVWDGSSVIFGGGTKLTVLDYKDDDDKGGHHHHHH
notes: as for B1
Turning to B8, in experiment [1], the binding result is reported as “binds”.

The record behind these values is patent publication US20240082402A1 (ELPIS BIOPHARMACEUTICALS, published 2024).
